# Assay results as given in IntAct's records for PubMed 27487388.
# B1: Microsomal triglyceride transfer protein large subunit (Homo sapiens), P55157 (parent)
# chain: MILLAVLFLCFISSYSASVKGHTTGLSLNNDRLYKLTYSTEVLLDRGKGKLQDSVGYRISSNVDVALLWRNPDGDDDQLIQITMKDVNVENVNQQRGEKSIFKGKSPSKIMGKENLEALQRPTLLHLIHGKVKEFYSYQNEAVAIENIKRGLASLFQTQLSSGTTNEVDISGNCKVTYQAHQDKVIKIKALDSCKIARSGFTTPNQVLGVSSKATSVTTYKIEDSFVIAVLAEETHNFGLNFLQTIKGKIVSKQKLELKTTEAGPRLMSGKQAAAIIKAVDSKYTAIPIVGQVFQSHCKGCPSLSELWRSTRKYLQPDNLSKAEAVRNFLAFIQHLRTAKKEEILQILKMENKEVLPQLVDAVTSAQTSDSLEAILDFLDFKSDSSIILQERFLYACGFASHPNEELLRALISKFKGSIGSSDIRETVMIITGTLVRKLCQNEGCKLKAVVEAKKLILGGLEKAEKKEDTRMYLLALKNALLPEGIPSLLKYAEAGEGPISHLATTALQRYDLPFITDEVKKTLNRIYHQNRKVHEKTVRTAAAAIILNNNPSYMDVKNILLSIGELPQEMNKYMLAIVQDILRFEMPASKIVRRVLKEMVAHNYDRFSRSGSSSAYTGYIERSPRSASTYSLDILYSGSGILRRSNLNIFQYIGKAGLHGSQVVIEAQGLEALIAATPDEGEENLDSYAGMSAILFDVQLRPVTFFNGYSDLMSKMLSASGDPISVVKGLILLIDHSQELQLQSGLKANIEVQGGLAIDISGAMEFSLWYRESKTRVKNRVTVVITTDITVDSSFVKAGLETSTETEAGLEFISTVQFSQYPFLVCMQMDKDEAPFRQFEKKYERLSTGRGYVSQKRKESVLAGCEFPLHQENSEMCKVVFAPQPDSTSSGWF
# partner: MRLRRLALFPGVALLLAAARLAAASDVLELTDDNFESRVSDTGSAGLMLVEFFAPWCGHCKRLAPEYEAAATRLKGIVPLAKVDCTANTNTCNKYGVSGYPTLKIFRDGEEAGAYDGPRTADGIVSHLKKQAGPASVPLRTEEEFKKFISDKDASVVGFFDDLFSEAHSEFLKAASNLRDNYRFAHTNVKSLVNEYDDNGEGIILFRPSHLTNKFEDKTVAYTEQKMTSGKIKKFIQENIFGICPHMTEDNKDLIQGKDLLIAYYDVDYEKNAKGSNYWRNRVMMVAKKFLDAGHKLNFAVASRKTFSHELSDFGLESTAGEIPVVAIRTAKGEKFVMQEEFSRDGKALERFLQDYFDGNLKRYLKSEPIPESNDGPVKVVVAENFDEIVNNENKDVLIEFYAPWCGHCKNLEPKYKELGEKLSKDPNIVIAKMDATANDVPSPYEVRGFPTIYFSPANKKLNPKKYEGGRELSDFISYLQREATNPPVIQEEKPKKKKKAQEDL
# B2: Microsomal triglyceride transfer protein large subunit (Homo sapiens), P55157 (parent)
# chain: B1 chain
# Variants of: B1
# Conditions: with pdia3_chlae PDIA3, Q4VIT4
row,Variant,effect of a mutation on the interaction
1,D361E,with no effect
2,D361Y,decreasing interaction strength

# Variants of: B1
# Conditions: with pdia3_chlae PDIA3, Q4VIT4
# Remark: another data set of the same source
row,Variant,effect of a mutation on the interaction
1,D361Y,disrupting interaction strength

# Variants of: B2
# Conditions: with apob_human APOB
row,Variant,effect of a mutation on the interaction
1,D361E,with no effect
2,D361Y,with no effect

# Variants of: B2
# Conditions: with apob_human APOB
# Remark: another data set of the same source
row,Variant,effect of a mutation on the interaction
1,D361E,increasing interaction strength
